Columns and labels:
[1] = target: T1, CD38 on CD38-positive cell lines (human, UniProt P28907 1-300); experiment: FACS; H929 cells
[2] = target: T1, CD38 on CD38-positive cell lines; experiment: FACS; Daudi cells
[3] = target: T1, CD38 on CD38-positive cell lines; experiment: FACS; Ramos cells
[4] = target: T1, CD38 on CD38-positive cell lines; experiment: FACS; SU-DHL-6 cells
[5] = target: T1, CD38 on CD38-positive cell lines; experiment: FACS; RPMI 8226 cells
[6] = target: T1, CD38 on CD38-positive cell lines; experiment: FACS; MM1S cells
[7] = target: T1, CD38 on CD38-positive cell lines; experiment: FACS; MOLP-8 cells
[8] = target: T1, CD38 on CD38-positive cell lines; experiment: FACS; Raji cells

EC50 [1]: 0.767 mg/L
EC50 [2]: 0.289 mg/L
EC50 [3]: 0.74 mg/L
EC50 [4]: 0.548 mg/L
EC50 [5]: 1.19 mg/L
EC50 [6]: 0.581 mg/L
EC50 [7]: 0.28 mg/L
EC50 [8]: 0.321 mg/L
B1: daratumumab (antibody, V domains shown)
VH: EVQLLESGGGLVQPGGSLRLSCAVSGFTFNSFAMSWVRQAPGKGLEWVSAISGSGGGTYYADSVKGRFTISRDNSKNTLYLQMNSLRAEDTAVYFCAKDKILWFGEPVFDYWGQGTLVTVSS
VL: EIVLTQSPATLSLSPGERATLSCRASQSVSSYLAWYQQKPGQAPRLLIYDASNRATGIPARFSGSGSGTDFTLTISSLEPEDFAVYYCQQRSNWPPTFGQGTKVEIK

Source: article PMC9798557 (2022)
